Patent publication US20030166864A1 (Human Genome Sciences, published 2003)

Target: T1, TACI-Fc fusion protein (transmembrane activator and CAML-interactor fused to Fc) (Homo sapiens (Human), UniProt O14836 1-159)
T1 construct: also called TACI-FC protein; Full-length TACI-Fc; not shown: Fc part from the vector pC4-Fc
T1 sequence: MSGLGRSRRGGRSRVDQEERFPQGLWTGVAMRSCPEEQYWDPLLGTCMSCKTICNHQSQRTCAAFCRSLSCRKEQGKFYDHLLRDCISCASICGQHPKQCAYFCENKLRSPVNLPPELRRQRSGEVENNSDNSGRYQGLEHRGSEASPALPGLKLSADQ
Experiment: BIAcore (SPR), TACI-Fc amine-coupled to a CM5 chip, TNF-epsilon in flow
Procedure: BIAcore analysis was performed essentially as follows. TACI-FC protein was immobilized to the BIAcore sensor chip (CM5 chip) via amine groups using N-ethyl-N′-(dimethlaminopropyl)carbodiimide/N-hydroxysuccinimide chemistry. Various dilutions of TNF-epsilon or other TNF ligands were flowed over the receptor-derivatized flow cells at a rate of 15 microliters per minute for a total volume of 50 microliters. The amount of bound protein was determined during washing of the flow cell with HBS buffer (10 mM HEPES, pH 7.4, 150 mM NaCl, 3.4 mM EDTA, 0.005% Surfactant P20). Binding specificity of TNF-epsilon to TACI was determined by competition with soluble competitor. The flow cell surface was regenerated by displacing bound protein by washing with 20 microliters of 10 mM glycine-HCl, pH=2.3.

B1: TNF-epsilon (purified, trimeric form isolated by size exclusion chromatography) (ligand)
chain: AVLTQKQKNDSDVTEVMWQPALRRGRGLQAQGYGVRIQDAGVYLLYSQVLFQDVTFTMGQVVSREGQGRQETLFRCIRSMPSHPDRAYNSCYSAGVFHLHQGDILSVIIPRARAKLNLSPHGTFLGFVKL
  Kd: 6 nM
